# Measured values published in US20230158141A1 (YAFEI SHANGHAI BIOLOG MEDICINE SCIENCE AND TECHNOLOGY, published 2023).
# Substitutions are numbered along the chain they refer to.
# T1: IL-10R1-Fc (UniProt Q13651 22-235, limits assumed)
# T1 sequence (looked up): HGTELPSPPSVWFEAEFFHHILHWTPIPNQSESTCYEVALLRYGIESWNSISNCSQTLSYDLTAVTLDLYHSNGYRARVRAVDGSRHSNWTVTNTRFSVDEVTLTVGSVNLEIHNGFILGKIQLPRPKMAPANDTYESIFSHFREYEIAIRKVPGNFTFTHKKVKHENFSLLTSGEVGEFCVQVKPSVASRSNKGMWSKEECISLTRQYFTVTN
# T2: IL-10R2-Fc/His (UniProt Q08334 20-220, limits assumed)
# T2 sequence (looked up): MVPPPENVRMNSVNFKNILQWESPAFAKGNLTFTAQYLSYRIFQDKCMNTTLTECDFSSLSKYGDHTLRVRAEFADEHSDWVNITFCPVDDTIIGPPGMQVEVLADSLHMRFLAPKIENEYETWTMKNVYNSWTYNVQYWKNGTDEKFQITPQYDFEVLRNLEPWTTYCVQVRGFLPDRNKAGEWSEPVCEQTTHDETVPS
# B1: IL-10 Lys138Cys-S48 (ligand, human, UniProt P22301 19-178, looked up)
# chain: SPGQGTQSENSCTHFPGNLPNMLRDLRDAFSRVKTFFQMKDQLDNLLLKESLLEDFKGYLGCQALSEMIQFYLEEVMPQAENQDPDIKAHVNSLGENLKTLRLRLRRCHRFLPCENKSKAVEQVKNAFNKLQEKGIYCAMSEFDIFINYIEAYMTMKIRN
# modifications: S48 on Cys 138
# notes: mature
# B2: IL-10 Thr6Cys-S48 (ligand, human, UniProt P22301 19-178, looked up)
# chain: B1 chain with T6C, C138K
# modifications: S48 on Cys 6
# notes: mature
# B3: IL-10 Phe15Cys-R4-8 (ligand, human, UniProt P22301 19-178, looked up)
# chain: B1 chain with F15C, C138K
# modifications: R4-8 on Cys 15
# notes: mature
# B4: IL-10 Tyr72Cys-S48 (ligand, human, UniProt P22301 19-178, looked up)
# chain: B1 chain with Y72C, C138K
# modifications: S48 on Cys 72
# notes: mature
# B5: IL-10 Asn92Cys-R4-18 (ligand, human, UniProt P22301 19-178, looked up)
# chain: B1 chain with N92C, C138K
# modifications: R4-18 on Cys 92
# notes: mature
# B6: IL-10 Tyr72Cys-R4-4 (ligand, human, UniProt P22301 19-178, looked up)
# chain: B1 chain with Y72C, C138K
# modifications: R4-4 on Cys 72
# notes: mature
# B7: IL-10 Lys157Cys-S48 (ligand, human, UniProt P22301 19-178, looked up)
# chain: B1 chain with C138K, K157C
# modifications: S48 on Cys 157
# notes: mature
# B8: IL-10 Thr155Cys-S48 (ligand, human, UniProt P22301 19-178, looked up)
# chain: B1 chain with C138K, T155C
# modifications: S48 on Cys 155
# notes: mature
# B9: IL-10 Phe143Cys-S48 (ligand, human, UniProt P22301 19-178, looked up)
# chain: B1 chain with C138K, F143C
# modifications: S48 on Cys 143
# notes: mature
# B10: IL-10 Tyr149Cys-S48 (ligand, human, UniProt P22301 19-178, looked up)
# chain: B1 chain with C138K, Y149C
# modifications: S48 on Cys 149
# notes: mature
# B11: IL-10 Ser8Cys-R4-5 (ligand, human, UniProt P22301 19-178, looked up)
# chain: B1 chain with S8C, C138K
# modifications: R4-5 on Cys 8
# notes: mature
# B12: IL-10 Arg106Cys-S48 (ligand, human, UniProt P22301 19-178, looked up)
# chain: B1 chain with R106C, C138K
# modifications: S48 on Cys 106
# notes: mature
# B13: IL-10 Tyr137Cys-R4-4 (ligand, human, UniProt P22301 19-178, looked up)
# chain: B1 chain with Y137C, C138K
# modifications: R4-4 on Cys 137
# notes: mature
# B14: IL-10 Ser141Cys-R4-7 (ligand, human, UniProt P22301 19-178, looked up)
# chain: B1 chain with C138K, S141C
# modifications: R4-7 on Cys 141
# notes: mature
# B15: IL-10 Met140Cys-S48 (ligand, human, UniProt P22301 19-178, looked up)
# chain: B1 chain with C138K, M140C
# modifications: S48 on Cys 140
# notes: mature
# B16: IL-10 Ala89Cys-R4-1 (ligand, human, UniProt P22301 19-178, looked up)
# chain: B1 chain with A89C, C138K
# modifications: R4-1 on Cys 89
# notes: mature
# B17: IL-10 Val91Cys-S48 (ligand, human, UniProt P22301 19-178, looked up)
# chain: B1 chain with V91C, C138K
# modifications: S48 on Cys 91
# notes: mature
# B18: IL-10 Ser11Cys-S48 (ligand, human, UniProt P22301 19-178, looked up)
# chain: B1 chain with S11C, C138K
# modifications: S48 on Cys 11
# notes: mature
# B19: IL-10 Thr13Cys-R4-6 (ligand, human, UniProt P22301 19-178, looked up)
# chain: B1 chain with T13C, C138K
# modifications: R4-6 on Cys 13
# notes: mature
# B20: IL-10 Tyr149Cys-R4-4 (ligand, human, UniProt P22301 19-178, looked up)
# chain: B1 chain with C138K, Y149C
# modifications: R4-4 on Cys 149
# notes: mature
# B21: IL-10 Thr35Cys-R4-6 (ligand, human, UniProt P22301 19-178, looked up)
# chain: B1 chain with T35C, C138K
# modifications: R4-6 on Cys 35
# notes: mature
# B22: IL-10 Phe30Cys-R4-8 (ligand, human, UniProt P22301 19-178, looked up)
# chain: B1 chain with F30C, C138K
# modifications: R4-8 on Cys 30
# notes: mature
# B23: IL-10 Lys157Cys-R4-7 (ligand, human, UniProt P22301 19-178, looked up)
# chain: B1 chain with C138K, K157C
# modifications: R4-7 on Cys 157
# notes: mature
# B24: IL-10 Ser93Cys-S48 (ligand, human, UniProt P22301 19-178, looked up)
# chain: B1 chain with S93C, C138K
# modifications: S48 on Cys 93
# notes: mature; the row prints S in one column and Asp in the next
# B25: IL-10 Tyr137Cys-S48 (ligand, human, UniProt P22301 19-178, looked up)
# chain: B1 chain with Y137C, C138K
# modifications: S48 on Cys 137
# notes: mature
# B26: IL-10 Thr155Cys-R4-7 (ligand, human, UniProt P22301 19-178, looked up)
# chain: B1 chain with C138K, T155C
# modifications: R4-7 on Cys 155
# notes: mature
# B27: IL-10 Ser93Cys-R4-2 (ligand, human, UniProt P22301 19-178, looked up)
# chain: B1 chain with S93C, C138K
# modifications: R4-2 on Cys 93
# notes: as for B24
# B28: IL-10 Ser141Cys-S48 (ligand, human, UniProt P22301 19-178, looked up)
# chain: B1 chain with C138K, S141C
# modifications: S48 on Cys 141
# notes: mature
# B29: IL-10 Val91Cys-R4-5 (ligand, human, UniProt P22301 19-178, looked up)
# chain: B1 chain with V91C, C138K
# modifications: R4-5 on Cys 91
# notes: mature
# B30: IL-10 Phe143Cys-R4-8 (ligand, human, UniProt P22301 19-178, looked up)
# chain: B1 chain with C138K, F143C
# modifications: R4-8 on Cys 143
# notes: mature
# B31: IL-10 Ser51Cys-S48 (ligand, human, UniProt P22301 19-178, looked up)
# chain: B1 chain with S51C, C138K
# modifications: S48 on Cys 51
# notes: mature
# B32: IL-10 Phe30Cys-S48 (ligand, human, UniProt P22301 19-178, looked up)
# chain: B1 chain with F30C, C138K
# modifications: S48 on Cys 30
# notes: mature
# B33: IL-10 Arg106Cys-R4-7 (ligand, human, UniProt P22301 19-178, looked up)
# chain: B1 chain with R106C, C138K
# modifications: R4-7 on Cys 106
# notes: mature
# B34: IL-10 Phe111Cys-R4-8 (ligand, human, UniProt P22301 19-178, looked up)
# chain: B1 chain with F111C, C138K
# modifications: R4-8 on Cys 111
# notes: mature
# B35: IL-10 Ala89Cys-S48 (ligand, human, UniProt P22301 19-178, looked up)
# chain: B1 chain with A89C, C138K
# modifications: S48 on Cys 89
# notes: mature
# B36: IL-10 Ser118Cys-R4-5 (ligand, human, UniProt P22301 19-178, looked up)
# chain: B1 chain with S118C, C138K
# modifications: R4-5 on Cys 118
# notes: mature
# B37: IL-10 Ser118Cys-S48 (ligand, human, UniProt P22301 19-178, looked up)
# chain: B1 chain with S118C, C138K
# modifications: S48 on Cys 118
# notes: mature
# B38: IL-10 Met140Cys-R4-1 (ligand, human, UniProt P22301 19-178, looked up)
# chain: B1 chain with C138K, M140C
# modifications: R4-1 on Cys 140
# notes: mature
# B39: IL-10 Met39Cys-R4-1 (ligand, human, UniProt P22301 19-178, looked up)
# chain: B1 chain with M39C, C138K
# modifications: R4-1 on Cys 39
# notes: mature
# B40: IL-10 Arg102Cys-R4-20 (ligand, human, UniProt P22301 19-178, looked up)
# chain: B1 chain with R102C, C138K
# modifications: R4-20 on Cys 102
# notes: mature
# B41: IL-10 Ala29Cys-R4-5 (ligand, human, UniProt P22301 19-178, looked up)
# chain: B1 chain with A29C, C138K
# modifications: R4-5 on Cys 29
# notes: mature
# B42: IL-10 Phe111Cys-S48 (ligand, human, UniProt P22301 19-178, looked up)
# chain: B1 chain with F111C, C138K
# modifications: S48 on Cys 111
# notes: mature
# B43: IL-10 Ser51Cys-R4-7 (ligand, human, UniProt P22301 19-178, looked up)
# chain: B1 chain with S51C, C138K
# modifications: R4-7 on Cys 51
# notes: mature
# B44: IL-10 Ser11Cys-R4-7 (ligand, human, UniProt P22301 19-178, looked up)
# chain: B1 chain with S11C, C138K
# modifications: R4-7 on Cys 11
# notes: mature
# B45: IL-10 Arg102Cys-S48 (ligand, human, UniProt P22301 19-178, looked up)
# chain: B1 chain with R102C, C138K
# modifications: S48 on Cys 102
# notes: mature
# B46: IL-10 Ala29Cys-S48 (ligand, human, UniProt P22301 19-178, looked up)
# chain: B1 chain with A29C, C138K
# modifications: S48 on Cys 29
# notes: mature
# B47: IL-10 Ser8Cys-S48 (ligand, human, UniProt P22301 19-178, looked up)
# chain: B1 chain with S8C, C138K
# modifications: S48 on Cys 8
# notes: mature
# B48: IL-10 Met39Cys-S48 (ligand, human, UniProt P22301 19-178, looked up)
# chain: B1 chain with M39C, C138K
# modifications: S48 on Cys 39
# notes: mature
# B49: IL-10 Thr13Cys-S48 (ligand, human, UniProt P22301 19-178, looked up)
# chain: B1 chain with T13C, C138K
# modifications: S48 on Cys 13
# notes: mature
# Key:
# IL-10R1-Fc = biological target: T1, IL-10R1-Fc; assay: ELISA, IL-10R1-Fc coated
# IL-10R2-Fc/His = biological target: T2, IL-10R2-Fc/His; assay: ELISA, IL-10R2-Fc/His coated
Binder,Decreased fold of binding to ligand after Conjugating with S48 (IL-10R1-Fc),Binding recovery (>60%) (IL-10R1-Fc),other results
B1,23 fold,,
B2,3 fold,,
B3,,,Binding recovery (>60%) (IL-10R2-Fc/His): 90%
B4,3 fold,,
B5,,,Binding recovery (>60%) (IL-10R2-Fc/His): 86.4%
B6,,109%,
B7,3 fold,,
B8,3 fold,,
B9,7 fold,,
B10,5 fold,,
B11,,100%,
B12,,,Decreased fold of binding to ligand after Conjugating with S48 (IL-10R2-Fc/His): 3 fold
B13,,99.1%,
B14,,112%,
B15,3 fold,,
B16,,,Binding recovery (>60%) (IL-10R2-Fc/His): 78.7%
B17,3 fold,,
B18,9 fold,,
B19,,99.1%,
B20,,115%,
B21,,90.1%,
B22,,97.1%,
B23,,98.6%,
B24,3 fold,,
B25,5 fold,,

Binder,Decreased fold of binding to ligand after Conjugating with S48 (IL-10R1-Fc),Binding recovery (>60%) (IL-10R1-Fc),other results
B26,,98.1%,
B27,,100%,
B28,19 fold,,
B29,,97.2%,
B30,,69%,
B31,3 fold,,
B32,6 fold,,
B33,,,Binding recovery (>60%) (IL-10R2-Fc/His): 99.6%
B34,,90.1%,
B35,,,Decreased fold of binding to ligand after Conjugating with S48 (IL-10R2-Fc/His): 5 fold
B36,,100%,
B37,3 fold,,
B38,,89%,
B39,,88%,
B40,,,Binding recovery (>60%) (IL-10R2-Fc/His): 99%
B41,,,Binding recovery (>60%) (IL-10R2-Fc/His): 78%
B42,12 fold,,
B43,,96.7%,
B44,,133%,
B45,,,Decreased fold of binding to ligand after Conjugating with S48 (IL-10R2-Fc/His): 3 fold
B46,,,Decreased fold of binding to ligand after Conjugating with S48 (IL-10R2-Fc/His): 3 fold
B47,3 fold,,
B48,62 fold,,
B49,7 fold,,
